Data taken from paper PMC2735845.

Key:
[1] = target: E. coli SSB-mixed (E. coli) (UniProt P0AGE0)
E. coli SSB113 (E. coli) = E. coli SSB113 (E. coli) (UniProt P0AGE0)
[2] = target: E. coli SSBΔC1 (SSB lacking its C-terminal-most residue) (E. coli) (UniProt P0AGE0)

## E. coli RecQ (wild type, full-length, hexahistidine-tagged) (from UniProt P15043 1-609) (enzyme)
[1]
  Fold stimulation of RecQ helicase activity by SSB-mixed: 0.7 fold
E. coli SSB113 (E. coli)
  Fold stimulation of RecQ helicase activity by SSB113: 0.9 fold
[2]
  Fold stimulation of RecQ helicase activity by SSBΔC1: 0.6 fold
